Article PMC4975489, “The Arabidopsis Protein Phosphatase PP2C38 Negatively Regulates the Central Immune Kinase BIK1” (PLoS Pathogens, 2016)

Target: T1, recombinant GST-BIK1 (Arabidopsis thaliana, UniProt O48814 1-395)
T1 construct: BIK1, receptor-like cytoplasmic kinase of Arabidopsis thaliana; source: recombinant protein
T1 sequence (looked up): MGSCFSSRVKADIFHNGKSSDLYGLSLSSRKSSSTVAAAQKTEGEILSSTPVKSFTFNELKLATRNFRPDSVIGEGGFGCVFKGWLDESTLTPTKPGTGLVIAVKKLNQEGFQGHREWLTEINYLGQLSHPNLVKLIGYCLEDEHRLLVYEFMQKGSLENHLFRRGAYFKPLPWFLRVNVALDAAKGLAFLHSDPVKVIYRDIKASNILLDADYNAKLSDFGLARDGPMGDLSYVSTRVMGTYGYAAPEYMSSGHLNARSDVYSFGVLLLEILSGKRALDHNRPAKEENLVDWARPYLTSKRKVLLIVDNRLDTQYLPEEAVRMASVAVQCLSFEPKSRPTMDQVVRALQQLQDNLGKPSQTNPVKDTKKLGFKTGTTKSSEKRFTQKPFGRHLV
Test: pull-down; recombinant MBP-PP2C38 and GST-BIK1 in column buffer (50 mM Tris pH 7.5, 50 mM NaCl, 0.2% IGEPAL CA-630), 4°C; MBP pull-down on amylose resin
Settings: both partners purified

binding result: binds
B1: recombinant MBP-PP2C38 (enzyme, Arabidopsis thaliana, UniProt Q9LHJ9 1-385, looked up)
chain: MVSSATILRMVAPCWRRPSVKGDHSTRDANGRCDGLLWYKDSGNHVAGEFSMSVIQANNLLEDHSKLESGPVSMFDSGPQATFVGVYDGHGGPEAARFVNKHLFDNIRKFTSENHGMSANVITKAFLATEEDFLSLVRRQWQIKPQIASVGACCLVGIICSGLLYIANAGDSRVVLGRLEKAFKIVKAVQLSSEHNASLESVREELRSLHPNDPQIVVLKHKVWRVKGIIQVSRSIGDAYLKKAEFNREPLLAKFRVPEVFHKPILRAEPAITVHKIHPEDQFLIFASDGLWEHLSNQEAVDIVNTCPRNGIARKLIKTALREAAKKREMRYSDLKKIDRGVRRHFHDDITVIVVFLDSHLVSRSTSRRPLLSISGGGDLAGPST
notes: PP2C38, protein phosphatase 2C of Arabidopsis thaliana (At3g12620); 'PP2C38 CDS was inserted between BamHI and SalI restriction sites of pMAL-c4E'; source: recombinant protein (PP2C38 CDS in pMAL-c4E, NEB)
